What is called Kd is the equilibrium constant for the complex coming apart.

Holding throughout (assay): fluorescence anisotropy
In series [1] the target is T1, Dpo4 (SsoDpo4, Y-family DNA polymerase) (Sulfolobus solfataricus, UniProt Q97W02 1-352).
T1 sequence: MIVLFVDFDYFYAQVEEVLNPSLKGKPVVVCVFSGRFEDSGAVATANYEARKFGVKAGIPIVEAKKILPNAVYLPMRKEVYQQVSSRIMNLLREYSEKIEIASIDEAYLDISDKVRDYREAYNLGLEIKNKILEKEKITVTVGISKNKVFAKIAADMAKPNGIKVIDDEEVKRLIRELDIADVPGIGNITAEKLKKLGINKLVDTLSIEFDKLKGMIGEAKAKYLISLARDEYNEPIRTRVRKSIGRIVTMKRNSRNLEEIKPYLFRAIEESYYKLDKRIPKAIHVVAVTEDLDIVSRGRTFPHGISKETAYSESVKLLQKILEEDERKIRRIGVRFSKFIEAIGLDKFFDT

Series [2] deals with T2, Dpo1 exo- (SsoDpo1, B-family DNA polymerase) (Sulfolobus solfataricus, UniProt P26811 1-882, D231A;D318A).
T2 sequence: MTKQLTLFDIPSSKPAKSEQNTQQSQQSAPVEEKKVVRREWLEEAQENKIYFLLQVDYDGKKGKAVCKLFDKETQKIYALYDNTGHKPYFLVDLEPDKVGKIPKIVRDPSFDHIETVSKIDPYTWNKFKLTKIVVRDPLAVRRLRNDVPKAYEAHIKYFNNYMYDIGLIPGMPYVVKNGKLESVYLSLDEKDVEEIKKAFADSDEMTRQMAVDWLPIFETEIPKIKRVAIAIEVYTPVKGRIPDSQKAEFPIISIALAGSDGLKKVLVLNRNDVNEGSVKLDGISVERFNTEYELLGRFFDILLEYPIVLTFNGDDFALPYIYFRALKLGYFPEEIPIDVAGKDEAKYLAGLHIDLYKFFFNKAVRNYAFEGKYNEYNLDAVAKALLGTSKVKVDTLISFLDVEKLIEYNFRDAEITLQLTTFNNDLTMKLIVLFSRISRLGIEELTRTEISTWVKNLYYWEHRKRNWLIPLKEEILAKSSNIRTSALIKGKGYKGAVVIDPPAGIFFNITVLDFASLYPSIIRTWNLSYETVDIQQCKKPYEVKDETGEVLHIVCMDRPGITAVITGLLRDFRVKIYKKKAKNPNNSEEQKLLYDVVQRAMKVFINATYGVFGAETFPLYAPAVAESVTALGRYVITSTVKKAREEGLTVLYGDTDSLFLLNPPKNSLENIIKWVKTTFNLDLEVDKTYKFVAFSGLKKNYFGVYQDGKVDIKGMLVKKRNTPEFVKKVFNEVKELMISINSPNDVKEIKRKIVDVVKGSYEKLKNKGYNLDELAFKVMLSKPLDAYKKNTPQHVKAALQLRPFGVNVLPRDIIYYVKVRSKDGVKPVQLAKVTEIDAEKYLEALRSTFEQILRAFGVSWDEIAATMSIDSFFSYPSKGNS

Series [3] concerns the target T1, Dpo4 (SsoDpo4, Y-family DNA polymerase). This is another data set of the same source.
Series [4] concerns the target T2, Dpo1 exo- (SsoDpo1, B-family DNA …). This is another data set of the same source.
Series [5] deals with T1, Dpo4 (SsoDpo4, Y-family DNA polymerase). This is another data set of the same source.
Series [6] has the same target. This is another data set of the same source.
The target is the same in series [7]. This is another data set of the same source.
Series [8] concerns the target T2, Dpo1 exo- (SsoDpo1, B-family DNA …). This is another data set of the same source.

Where two headings read alike, the source gives them in different places.

As for TTTTTTTTTTCCCGGGCCGGCGTTTCGCCGGCCCGGG (structured_DNA) [37-nt hairpin primer-template, 5'-Cy3], the Kd in series [1] was 435 ± 116 nM; in series [2], 322 ± 23 nM; in series [3], 329 ± 107 nM; in series [4], 208 ± 57 nM; in series [5], 176 ± 10 nM; in series [6], 130 ± 4 nM. In addition, the values for the Kd in series [7] and in series [8] were 444 ± 115 nM and 208 ± 22 nM, respectively.
